Experimental data published in patent US20090325290A1 (published 2009).

T1: human MHC class II DR protein (DRA*0101/DRB1*0401), purified from PRIESS cells (human, UniProt P01903 26-254; P01911 30-266, limits assumed)
T1 construct: mature; 'mature' is my reading; also called HLA-DR protein; MHCII
T1 MHC II alpha: not shown
T1 MHC II beta: not shown


How the values were obtained:
[1] = target: human-mouse chimeric molecule DR-IE (human; mouse); experiment: cell-based or functional assay
bovine serum albumine = target: T2, bovine serum albumine (bovine, UniProt P02769 25-607); experiment: ELISA, antigen coated at 10 µg/well
T2 construct: negative control protein; also called BSA
Procedure: (§1) After washing in PBS the anti-human IgG F(ab)₂-peroxidase-conjugate at a 1:10,000 dilution in TBS (supplemented with 5% w/v non-fat dry-milk/0.05% v/v Tween 20) was added to each well for 1 h. Final washes were carried out in PBS followed the addition the substrate POD (Roche). Color-development was read at 370 nm in an ELISA-Reader.

human apotransferrin = target: T3, human apotransferrin (human, UniProt P02787 20-698); experiment: ELISA, antigen coated at 10 µg/well
T3 construct: negative control protein
Procedure: as §1

[2] = target: T1, human MHC class II DR protein …; experiment: SPR (BIAcore), Fab, 3 chips (500, 4000, 3000RU)
[3] = target: T4, HLA-DR on the human B-lymphoblastoid cell line LG-2 (human); experiment: cell-based or functional assay
[4] = target: T4, HLA-DR on the human B-lymphoblastoid …; experiment: FACS on LG-2 cells, competitor 1-1C4
Procedure: Subsequently murine antibodies were added and the murine antibodies were detected.
The whole staining procedure was performed on ice. 1×10⁷ cells of the human B-lymphoblastoid cell line LG-2 was preblocked for 20 min. in PBS containing 2% FCS and 35 μg/ml Guinea Pig IgG (“FACS-Buffer”). […] Subsequently, 4 ml of PBS were added to each vial, the vials were centrifuged at 300×g for 8 min, and the cell pellet resuspended in 50 μl FACS buffer containing a 1 to 25 dilution of a goat-anti-murine Ig-FITC conjugate at 20 μg/ml final concentration (BD Pharmingen, Torrey Pines, Calif., USA). Cells were incubated light-protected for 30 min. Afterwards, cells were washed with 4 ml PBS, centrifuged as above and resuspended in 500 μl PBS for analysis in the flow cytometer (FACS Calibur, BD Immunocytometry Systems, San Jose, Calif., USA).

[5] = target: T1, human MHC class II DR protein …; experiment: BiaCore, IgG4
Procedure: The affinities for anti-HLA antibody fragments of the invention were measured as follows. All measurements were conducted in HBS buffer (20 mM HEPES, 150 mM NaCl, pH 7.4) at a flow rate of 20 μl/min at 25° C. on a BIAcore3000 instrument (Biacore AB, Sweden). MHC class II DR protein (prepared as example 1) was diluted in 100 mM sodium acetate pH 4.5 to a concentration of […], and coupled to a CM5 chip (Biacore AB) using standard EDC-NHS coupling chemistry with subsequent ethanolamine treatment as manufacturers directions. The coating density of MHCII was adjusted to between 500 and 4000 RU. Affinities were measured by injection of 5 different concentrations of the different antibodies and using the standard software of the Biacore instrument. Regeneration of the coupled surface was achieved using 10 mM glycine pH 2.3 and 7.5 mM NaOH.

[6] = target: HLA-DR antigen on the surface of HLA-DR positive cells (tumor cell lines other than PRIESS and LG-2, normal B … (human)); experiment: cell-based or functional assay
[7] = target: human-mouse chimeric molecule DR-IE (human; mouse); experiment: cell-based or functional assay; remark: listed apart in the source
[8] = target: T4, HLA-DR on the human B-lymphoblastoid …; experiment: cell-based or functional assay; remark: listed apart in the source

| IC50, inhibition of IL-2 secretion of T-Hyb 1 cells [1] | Maximum inhibition(%) of IL-2 secretion [1] | binding result (bovine serum albumine) | binding result (human apotransferrin) | Kd [2] | kon [2] | reduction of mean fluorescence intensity of the murine antibody [4] | kon [5] | IC50 for inhibition of T cell proliferation [7] | Binder | EC50 of cell killing, LG2, cross-linked Fab as bivalent agent [3] | EC50 of cell killing, IgG form [6] | % killing of LG-2 cells, 50 nM, 4 h [8] | EC50 of cell killing, LG2, IgG4 [3] |
| --- | --- | --- | --- | --- | --- | --- | --- | --- | --- | --- | --- | --- | --- |
| 20 nM ((Fab)/2) | 100% | no binding (tested: 100 ng/well) | no binding (tested: 100 ng/well) | 8 nM | 120000 M⁻¹ s⁻¹ | – | – | – | MS-GPC-8-6 (Fab form) (Fab, V domains shown, Fab: VH-CH1-FLAG-STREP tag II) VH: QVQLKESGPALVKPTQTLTLTCTFSGFSLSTSGVGVGWIRQPPGKALEWLALIDWDDDKYYSTSLKTRLTISKDTSKNQVVLTMTNMDPVDTATYYCARSPRYRGAFDYWGQGTLVTVSS VL: DIVLTQPPSVSGAPGQRVTISCSGSSSNIGSNYVSWYQQLPGTAPKLLIYDNNQRPSGVPDRFSGSKSGTSASLAITGLQSEDEADYYCQSYDYDHYVFGGGTKLTVLG | – | – | – | – |
| 2.9 nM ((Fab)/2) | 100% | – | no binding (tested: 100 ng/well) | – | – | > 90% | – | – | MS-GPC-8-10-57 (Fab form) (Fab, V domains shown, Fab: VH-CH1-FLAG-STREP tag II; also called 1C7277) VH: QVQLKESGPALVKPTQTLTLTCTFSGFSLSTSGVGVGWIRQPPGKALEWLALIDWDDDKYYSTSLKTRLTISKDTSKNQVVLTMTNMDPVDTATYYCARSPRYRGAFDYWGQGTLVTVSS VL: DIVLTQPPSVSGAPGQRVTISCSGSESNIGNNYVQWYQQLPGTAPKLLIYDNNQRPSGVPDRFSGSKSGTSASLAITGLQSEDEADYYCQSYDLIRHVFGGGTKLTVLG | 7.2 nM | – | – | – |
| 0.28 nM | 100% | – | – | – | – | > 90% | 71000 M⁻¹ s⁻¹ | 20 nM | MS-GPC-8-27-41 (IgG4 form) (antibody, V domains shown, Human IgG4 (constant region EMBL K01316), lambda constant region (EMBL M18645), from CHO-K1 cells; also called 1D09C3) VH: QVQLKESGPALVKPTQTLTLTCTFSGFSLSTSGVGVGWIRQPPGKALEWLALIDWDDDKYYSTSLKTRLTISKDTSKNQVVLTMTNMDPVDTATYYCARSPRYRGAFDYWGQGTLVTVSS VL: DIVLTQPPSVSGAPGQRVTISCSGSESNIGNNYVQWYQQLPGTAPKLLIYDNNQRPSGVPDRFSGSKSGTSASLAITGLQSEDEADYYCQSYDMNVHVFGGGTKLTVLG | – | 1.2 nM | 87% | 1.23 nM |
| 0.31 nM | 100% | – | – | – | – | > 90% | 11000 M⁻¹ s⁻¹ | 11 nM | MS-GPC-8-10-57 (IgG4 form) (antibody, V domains shown, Human IgG4 (constant region EMBL K01316), lambda constant region (EMBL M18645), from CHO-K1 cells; also called 1C7277) VH: QVQLKESGPALVKPTQTLTLTCTFSGFSLSTSGVGVGWIRQPPGKALEWLALIDWDDDKYYSTSLKTRLTISKDTSKNQVVLTMTNMDPVDTATYYCARSPRYRGAFDYWGQGTLVTVSS VL: DIVLTQPPSVSGAPGQRVTISCSGSESNIGNNYVQWYQQLPGTAPKLLIYDNNQRPSGVPDRFSGSKSGTSASLAITGLQSEDEADYYCQSYDLIRHVFGGGTKLTVLG | – | 1.2 nM | 88% | 1 nM |
